Measurements from patent US20050107601A1.

Experiments:
[1] = target: erbB receptors on primary chick myotube cultures; test: radioligand binding: 0.1 nM 125I-IG-EGF on chick myotubes, 2 hrs on ice, with or without 1 µM cold IG-EGF; cpm bound
[2] = target: erbB receptors on primary chick myotube cultures; test: cell-based or functional assay

Q: For “Recombinant human NRG IG-EGF domain construct (amino acids 14-246 of the human β1 form) (from UniProt Q02297 14-246) (ligand)”, which specific binding as percent of total binding [1] is on record?
A: 25%

Q: And the duration of p185 phosphorylation after the ligand is washed out (1 nM, 45 min treatment), chick myotubes [2]?
A: 8 h

Q: And the erbB receptor (p185) tyrosine phosphorylation on chick myotubes, 45 min, anti-phosphotyrosine western blot; potency relative to the EGF form [2]?
A: 4 fold

Q: For “Recombinant human NRG isolated EGF-like domain construct (amino acids 177-246 of the human β1 form) (from UniProt Q02297 177-246) (ligand)”, which duration of p185 phosphorylation after the ligand is washed out (1 nM, 45 min treatment), chick myotubes [2] is on record?
A: < 1 h
